Reference: patent US20250296997A1 (Eli Lilly, published 2025)

What was measured:
human IL-34 [1] = biological target: T1, human IL-34 (human, UniProt Q6ZMJ4 21-242, Biotinylated in the CSF1R displacement ELISA (sites not given); secreted homodimer, one monomer chain given.); test: SPR, BIAcore 8K, 37 C, antibody captured on Protein A chip, IL-34 flowed; mean of at least three experiments (SD 4.4E+05 in r10c4)
T1 construct: Biotinylated in the CSF1R displacement ELISA; also called hIL-34; h IL-34
T1 sequence: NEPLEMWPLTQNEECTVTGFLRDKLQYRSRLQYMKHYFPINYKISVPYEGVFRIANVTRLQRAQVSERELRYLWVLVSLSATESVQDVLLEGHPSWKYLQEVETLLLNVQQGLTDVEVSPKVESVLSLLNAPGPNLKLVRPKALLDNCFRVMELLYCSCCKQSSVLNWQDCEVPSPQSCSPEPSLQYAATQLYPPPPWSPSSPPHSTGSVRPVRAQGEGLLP
Protocol: (§1) Binding affinity of anti-IL-34 monoclonal antibodies of the present disclosure to human and/or cynomolgus monkey (cyno) IL-34 may be determined by methods known in the art. Briefly, the binding affinity and kinetics of the antibody are evaluated by surface plasmon resonance using BIAcore™ 8K (Cytiva) at 37° C. […] For each cycle, 200 μL IL-34 is flowed over the immobilized antibody at 100 μL/minute, and then dissociated for 20 minutes. The chip surface is regenerated with 50 μL of glycine buffer at pH 1.5 at a flow rate of 100 μL/minute. The data are fit to a 1:1 Langmiur binding mode to derive kon, koff and to calculate KD.

cynomolgus monkey IL-34 [2] = biological target: T2, cynomolgus monkey IL-34 (cynomolgus monkey, UniProt G7Q1L3 21-242); test: SPR, BIAcore 8K, 37 C, antibody captured on Protein A chip, IL-34 flowed; mean of at least three experiments (SD 2.0E+06 in r12c4)
T2 construct: Biotinylated in the CSF1R displacement ELISA; also called cyno IL-34
T2 sequence: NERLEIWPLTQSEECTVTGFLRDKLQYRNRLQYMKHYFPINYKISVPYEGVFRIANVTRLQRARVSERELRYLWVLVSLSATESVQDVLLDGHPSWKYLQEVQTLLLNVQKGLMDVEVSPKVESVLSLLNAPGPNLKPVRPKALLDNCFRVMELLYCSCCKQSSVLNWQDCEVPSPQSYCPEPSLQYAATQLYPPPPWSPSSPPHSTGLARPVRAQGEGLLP
Protocol: as §1

cynomolgus monkey IL-34 [3] = biological target: T2, cynomolgus monkey IL-34; test: SPR, BIAcore 8K, 37 C, antibody captured on Protein A chip, IL-34 flowed; mean of at least three experiments (SD 16.2 in r12c6)
Protocol: as §1

human IL-34 [4] = biological target: T1, human IL-34; test: SPR, BIAcore 8K, 37 C, antibody captured on Protein A chip, IL-34 flowed; mean of at least three experiments (SD 2.9E-05 in r10c5)
Protocol: as §1

cynomolgus monkey IL-34 [5] = biological target: T2, cynomolgus monkey IL-34; test: competition ELISA: displacement of biotinylated cyno IL-34 from plate-bound cynomolgus CSF1R ECD-Fc
Protocol: (§2) CSF1R extracellular domain proteins (hCSFIR_Fc commercially available from R&D Cat #329-MR, cynomolgus CSFIR ECD-Fc (AAA is a linker between CSF1R extracellular domain and Fc) (SEQ ID NO: 53)) can be bound to an ELISA plate at concentrations of 30 nM in order to capture soluble biotinylated IL-34 and allowed to bind for one hour. After washing and blocking plate, biotinylated IL-34 may be added, then detected via streptavidin conjugated peroxidase. Concentrations of labeled IL-34 near the 80% binding level (EC₈₀) (3.7 nM) may be used in conjunction with a range of antibody concentrations (0-100 nM) to determine concentration of antibody required to displace IL-34 from CSF1R. After 1 hr incubation, IL-34 bound to CSFIR is detected via streptavidin conjugated peroxidase. The antibodies are assayed (n=2) and the average and standard deviation at each concentration are calculated. The potency of an antibody to displace IL-34 from CSFIR is reported as IC₅₀ (nM) with the calculated confidence interval (CI) in Table 4 and Table 5.

human IL-34 [6] = biological target: T1, human IL-34; test: SPR, BIAcore 8K, 37 C, antibody captured on Protein A chip, IL-34 flowed; mean of at least three experiments (SD 4.8 in r10c6)
Protocol: as §1

human IL-34 [7] = biological target: T1, human IL-34; test: cell-based or functional assay
human IL-34 [8] = biological target: T1, human IL-34; test: competition ELISA: displacement of biotinylated human IL-34 (3.7 nM) from plate-bound hCSF1R_Fc
Protocol: as §2

cynomolgus monkey IL-34 [9] = biological target: T2, cynomolgus monkey IL-34; test: SPR, BIAcore 8K, 37 C, antibody captured on Protein A chip, IL-34 flowed; mean of at least three experiments (SD 5.3E-05 in r12c5)
Protocol: as §1

kon (human IL-34 [1]): 8.4e+06 M⁻¹ s⁻¹
kon (cynomolgus monkey IL-34 [2]): 7.9e+06 M⁻¹ s⁻¹
Kd (cynomolgus monkey IL-34 [3]): 0.0409 nM
koff (human IL-34 [4]): 0.00026 s⁻¹
IC50 (cynomolgus monkey IL-34 [5]): 0.644 nM
Kd (human IL-34 [6]): 0.0312 nM
IC50 (ug/ml), neutralization of human IL-34 induced luciferase reporter activity in hCSF1R expressing 293 SRE cells (human IL-34 [7]): 0.0458 µg/mL
IC50 (human IL-34 [8]): 0.154 nM
koff (cynomolgus monkey IL-34 [9]): 0.0003 s⁻¹
B1: Antibody 1 (antibody, human IgG4 S228P, kappa, F234A L235A, V domains shown)
VH: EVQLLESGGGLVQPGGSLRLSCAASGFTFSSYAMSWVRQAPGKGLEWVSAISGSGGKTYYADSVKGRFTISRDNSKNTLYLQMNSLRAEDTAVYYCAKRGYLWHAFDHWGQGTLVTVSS
VL: EIVLTQSPGTLSLSPGERATLSCRASQSVSSLYLAWYQQKPGQAPRLLIYGASSRATGIPDRFSGSGSGTDFTLTISRLEPEDFAVYYCQVVGSSPPFTFGGGTKVEIKR
notes: Fully human anti-IL-34 IgG4 (IgG4 PAA hinge/Fc, C-terminal lysine deleted), kappa light chain; also called Exemplified Antibody 1; exemplified antibody 1
